In US20250145714A1 (GENUV, published 2025):

Assays:
[1] = molecular target: IL-2Rα-His (Acrobiosystems) (UniProt P01589); assay: ELISA on plate-coated IL-2Rα-His, OD450 against antibody concentration (M)
[2] = molecular target: IL-2Rβγ-His (Acrobiosystems) (UniProt P14784); assay: ELISA on plate-coated IL-2Rβγ-His, OD450 against antibody concentration (M)
[3] = molecular target: T1, Human PD-1 (Acrobiosystems, Cat #PD1-H5221) (human, UniProt Q15116 25-167); assay: SPR Biacore 8K, human PD-1 amine-coupled on CM5, 1:1 model, pH 6.0
T1 construct: Bought protein, immobilised on a CM5 chip; also called hPD-1
T1 sequence (Q15116 25-167 limits assumed): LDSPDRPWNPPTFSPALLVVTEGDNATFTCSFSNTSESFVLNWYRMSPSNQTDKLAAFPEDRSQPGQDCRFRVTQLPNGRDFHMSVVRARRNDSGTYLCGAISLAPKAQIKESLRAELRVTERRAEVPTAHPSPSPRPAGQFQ
Protocol: (§1) Human PD-1 (Acrobiosystems, Cat #PD1-H5221) at a concentration of 1 μg/ml was immobilized on a CM5 chip (Cytiva) using an amine coupling kit (Cytiva) according to the manufacturer's instructions. […] After each experiment in each concentration cycle, the chip was regenerated with glycine at pH 1.5. At this time, the running buffer used was a pH 7.4 or pH 6.0 HBS-EP+ buffer (0.1 M HEPES, 1.5 M NaCl, 0.03 M EDTA and 0.5% v/v Surfactant P20), and the experimental proteins were diluted in the running buffer.
(§2) The analysis was performed using the 1:1 binding model in Biacore evaluation software version 3.0, and the results of the kinetic constants (ka and kd) and affinity (KD) values are shown in Table 3 below.

[4] = molecular target: T1, Human PD-1 (Acrobiosystems, Cat …); assay: SPR Biacore 8K, human PD-1 amine-coupled on CM5, 1:1 model, pH 7.4
Protocol: as §1, §2

IL-2Rα-His (Acrobiosystems), sequence (P01589 22-213): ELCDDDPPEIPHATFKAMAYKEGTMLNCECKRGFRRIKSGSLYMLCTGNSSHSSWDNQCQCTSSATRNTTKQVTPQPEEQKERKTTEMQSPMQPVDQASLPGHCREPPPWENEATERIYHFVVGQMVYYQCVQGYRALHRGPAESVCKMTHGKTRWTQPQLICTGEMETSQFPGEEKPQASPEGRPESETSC
IL-2Rβγ-His (Acrobiosystems), sequence (P14784 27-239 limits assumed, chain 1 of 2): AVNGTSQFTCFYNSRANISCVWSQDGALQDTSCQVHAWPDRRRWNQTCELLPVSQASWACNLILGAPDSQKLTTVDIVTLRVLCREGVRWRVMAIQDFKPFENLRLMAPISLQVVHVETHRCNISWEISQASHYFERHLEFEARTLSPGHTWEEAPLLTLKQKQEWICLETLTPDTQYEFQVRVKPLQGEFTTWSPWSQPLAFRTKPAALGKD
IL-2Rβγ-His (Acrobiosystems), sequence (P31785 23-262 limits assumed, chain 2 of 2, further chain): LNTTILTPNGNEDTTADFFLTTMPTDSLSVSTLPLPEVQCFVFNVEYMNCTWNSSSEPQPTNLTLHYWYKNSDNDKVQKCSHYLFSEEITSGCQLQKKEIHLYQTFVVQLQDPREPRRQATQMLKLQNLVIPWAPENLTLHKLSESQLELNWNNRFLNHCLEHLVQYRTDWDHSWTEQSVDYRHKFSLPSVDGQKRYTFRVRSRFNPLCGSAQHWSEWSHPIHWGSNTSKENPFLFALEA

EC50 [1] | EC50 [2] | Kd [3] | koff [3] | kon [3] | Kd [4] | koff [4] | kon [4] | Molecule
325 pM | 7990 pM |  |  |  |  |  |  | Fc-IL2 (control antibody; prepared in-house) (Fc fusion)
 |  | 48.1 pM | 1.38e-05 s⁻¹ | 286000 M⁻¹ s⁻¹ | 237 pM | 3.51e-05 s⁻¹ | 148000 M⁻¹ s⁻¹ | 1G1-h70 (antibody, V domains shown, also called humanized anti-PD-1 antibody 1G1-h70; anti-PD-1 antibody) VH: QVQLVQSGAEVKKPGASVKVSCKASGYTFTGYWMHWVRQAPGQGLEWIGMIHPNSDTTTYNEKFKNRVTMTRDTSISTAYMELSRLRSDDTAVYYCAGTDQAAWFAFWGQGTTVTVSS VL: DIVMTQTPLSLSVTPGQPASISCRSSQNIVHSQGDTYLEWYLQKPGQSPQLLIYKVSKRFSGVPDRFSGSGSGTDFTLKISRVEAEDVGVYYCFQGSHVPWTFGGGTKVEIK
